Where a chain is given by its changes, count along the chain named.
Key:
Details in all cases: protein: recombinant; tags: N-terminal GST (pGEX-6P-2); label: 6-FAM; blunt
FOXC2 DBD H122K [1] = target: T1, FOXC2 DBD H122K (UniProt Q99958 72-172, H122K); test: fluorescence anisotropy; pH 7.0; 20 mM HEPES, 140 mM KCl, 0.05 mM TCEP-HCl, pH 7.0 or 7.5 (pH titration 6.8-8.2), room temperature 30 min, 7.5 nM FAM-DNA
T1 sequence: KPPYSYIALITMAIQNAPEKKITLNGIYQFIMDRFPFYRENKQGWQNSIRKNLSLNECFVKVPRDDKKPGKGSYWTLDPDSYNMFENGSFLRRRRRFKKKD

FOXC2 DBD H122K [2] = target: T1, FOXC2 DBD H122K; test: fluorescence anisotropy; pH 7.5; 20 mM HEPES, 140 mM KCl, 0.05 mM TCEP-HCl, pH 7.0 or 7.5 (pH titration 6.8-8.2), room temperature 30 min, 7.5 nM FAM-DNA
FOXC2 DBD H122N [3] = target: T2, FOXC2 DBD H122N (UniProt Q99958 72-172, H122N); test: fluorescence anisotropy; pH 7.0; 20 mM HEPES, 140 mM KCl, 0.05 mM TCEP-HCl, pH 7.0 or 7.5 (pH titration 6.8-8.2), room temperature 30 min, 7.5 nM FAM-DNA
T2 sequence: T1 sequence with K51N

FOXM1 DBD WT = target: T3, FOXM1 DBD WT (UniProt Q08050 222-360); test: fluorescence anisotropy; pH 7.0; higher affinity than at pH 7.5; 20 mM HEPES, 140 mM KCl, 0.05 mM TCEP-HCl, pH 7.0 or 7.5 (pH titration 6.8-8.2), room temperature 30 min, 7.5 nM FAM-DNA
T3 sequence: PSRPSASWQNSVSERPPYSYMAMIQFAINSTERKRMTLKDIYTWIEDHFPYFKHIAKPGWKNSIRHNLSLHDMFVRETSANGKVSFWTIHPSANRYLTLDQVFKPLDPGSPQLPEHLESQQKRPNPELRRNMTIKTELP

FOXC2 DBD WT = target: T4, FOXC2 DBD WT (UniProt Q99958 72-172); test: as above
T4 sequence: T1 sequence with K51H

FOXN1 DBD WT = target: T5, FOXN1 DBD WT (UniProt O15353 270-366); test: as above
T5 sequence: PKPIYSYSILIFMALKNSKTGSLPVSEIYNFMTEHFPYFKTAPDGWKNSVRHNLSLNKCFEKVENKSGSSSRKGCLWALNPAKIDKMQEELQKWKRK

FOXM1 DBD H287K [4] = target: T6, FOXM1 DBD H287K (UniProt Q08050 222-360, H287K); test: fluorescence anisotropy; pH 7.0; 20 mM HEPES, 140 mM KCl, 0.05 mM TCEP-HCl, pH 7.0 or 7.5 (pH titration 6.8-8.2), room temperature 30 min, 7.5 nM FAM-DNA
T6 sequence: T3 sequence with H66K

FOXM1 DBD H287K [5] = target: T6, FOXM1 DBD H287K; test: fluorescence anisotropy; pH 7.5; 20 mM HEPES, 140 mM KCl, 0.05 mM TCEP-HCl, pH 7.0 or 7.5 (pH titration 6.8-8.2), room temperature 30 min, 7.5 nM FAM-DNA
FOXC2 DBD H122N [6] = target: T2, FOXC2 DBD H122N; test: fluorescence anisotropy; pH 7.5; similar to WT at pH 7.5; 20 mM HEPES, 140 mM KCl, 0.05 mM TCEP-HCl, pH 7.0 or 7.5 (pH titration 6.8-8.2), room temperature 30 min, 7.5 nM FAM-DNA

B1: FkhP (dsDNA)
DNA 1: CCATAAACAAC
DNA 2: GTTGTTTATGG
Ka (FOXC2 DBD H122K [1]): 0.86 ± 0.15 μM (as printed; KA = 1/KD, so presumably μM^-1) | Ka (FOXC2 DBD H122K [2]): 0.91 ± 0.08 μM (as printed; KA = 1/KD, so presumably μM^-1) | Ka (FOXC2 DBD H122N [3]): 0.14 ± 0.03 μM (as printed; KA = 1/KD, so presumably μM^-1) | binding result (FOXM1 DBD WT): binds | binding result (FOXC2 DBD WT): binds | binding result (FOXN1 DBD WT): binds | Ka (FOXM1 DBD H287K [4]): 4.1 ± 0.81 μM (as printed; KA = 1/KD, so presumably μM^-1) | Ka (FOXM1 DBD H287K [5]): 1.8 ± 0.27 μM (as printed; KA = 1/KD, so presumably μM^-1) | Ka (FOXC2 DBD H122N [6]): 0.1 ± 0.01 μM (as printed; KA = 1/KD, so presumably μM^-1)
